Measured values as given in the Human Domainome abundance scans (Beltran et al. 2025).
± gives the uncertainty stated by the source.

B1: Double-stranded RNA-specific adenosine deaminase, residues 296 to 358; numbered along this chain, P55265 (parent)
chain: MAEIKEKICDYLFNVSDSSALNLAKNIGLTKARDINAVLIDMERQGDVYRQGTTPPIWHLTDK

Variants of: B1
Experiment: abundance fitness (aPCA) (normalised: wild type 0, dead -1); higher = more abundant; growth selection in yeast, the domain comes from the species named
Settings: Homo sapiens

Compared with L12V, L12W is lower in abundance fitness: -0.669 ± 0.078 for the first, -1.01 ± 0.24 for the second.

L12G and L12I are within error of each other in abundance fitness: -0.441 ± 0.09 for the first, -0.69 ± 0.42 for the second.

L12K and L12F are within error of each other in abundance fitness: -0.95 ± 0.23 for the first, -0.727 ± 0.3 for the second.

Compared with T53I, F13M is higher in abundance fitness: -0.744 ± 0.17 for the first, 0.339 ± 0.067 for the second.

Compared with F13N, F13K is higher in abundance fitness: 0.366 ± 0.1 for the first, 0.538 ± 0.066 for the second.

Going from F13W to F13P, the abundance fitness falls from -0.051 ± 0.055 to -0.216 ± 0.082.

Compared with T61H, T61W is lower in abundance fitness: -0.344 ± 0.26 for the first, -0.808 ± 0.099 for the second.

S19Y and A37P are within error of each other in abundance fitness: -0.5 ± 0.38 for the first, -0.145 ± 0.062 for the second.

Going from A37Q to I35W, the abundance fitness falls from -0.11 ± 0.06 to -1.1 ± 0.38.

First: I35T
Second: T30R
The abundance fitness of the first is higher: -0.217 ± 0.075 for the first, -0.352 ± 0.047 for the second.

First: T30V
Second: T30S
The abundance fitness of the first is lower: -0.201 ± 0.058 for the first, 0.107 ± 0.045 for the second.

Compared with T30F, K7S is lower in abundance fitness: -0.246 ± 0.1 for the first, -0.467 ± 0.067 for the second.

First: K7R
Second: V48Y
The abundance fitness of the first is higher: -0.266 ± 0.062 for the first, -0.862 ± 0.17 for the second.

Compared with V48W, V48N is higher in abundance fitness: -0.692 ± 0.085 for the first, -0.286 ± 0.091 for the second.

Going from V48T to E3K, the abundance fitness rises from -0.563 ± 0.069 to -0.21 ± 0.061.

E3V and E3F are within error of each other in abundance fitness: -0.471 ± 0.081 for the first, -0.561 ± 0.11 for the second.

L23D and L23E are within error of each other in abundance fitness: -0.313 ± 0.11 for the first, -0.329 ± 0.067 for the second.

L23C and L23A are within error of each other in abundance fitness: -0.474 ± 0.091 for the first, -0.368 ± 0.064 for the second.

D47H and D47C are within error of each other in abundance fitness: -0.123 ± 0.071 for the first, -0.096 ± 0.12 for the second.

D47L and D47T are within error of each other in abundance fitness: 0.297 ± 0.045 for the first, 0.205 ± 0.055 for the second.

First: D47W
Second: D47E
The abundance fitness of the first is lower: -0.234 ± 0.069 for the first, 0.35 ± 0.049 for the second.

Going from R33V to R33P, the abundance fitness falls from 0.327 ± 0.058 to -0.272 ± 0.071.

R33S and R33D are within error of each other in abundance fitness: 0.342 ± 0.048 for the first, 0.417 ± 0.074 for the second.

Going from R33I to R33L, the abundance fitness falls from 0.262 ± 0.093 to -0.028 ± 0.046.

First: Q45R
Second: Q45D
The abundance fitness of the first is lower: -0.33 ± 0.055 for the first, 0.17 ± 0.06 for the second.

Compared with Q45H, Q45I is lower in abundance fitness: -0.024 ± 0.055 for the first, -0.495 ± 0.065 for the second.

First: Q45L
Second: Q45G
The abundance fitness of the first is higher: -0.524 ± 0.068 for the first, -0.778 ± 0.12 for the second.

First: T54G
Second: T54N
The abundance fitness of the first is lower: -0.32 ± 0.05 for the first, 0.306 ± 0.064 for the second.

T54Y and T54L are within error of each other in abundance fitness: -0.386 ± 0.081 for the first, -0.448 ± 0.05 for the second.

Going from T54V to T54F, the abundance fitness falls from -0.204 ± 0.053 to -0.429 ± 0.12.

First: T54K
Second: T54W
The abundance fitness of the first is higher: -0.024 ± 0.055 for the first, -0.513 ± 0.077 for the second.

Compared with T54A, I57Q is lower in abundance fitness: -0.04 ± 0.065 for the first, -0.181 ± 0.068 for the second.

First: I57F
Second: I57M
The abundance fitness of the first is lower: -0.637 ± 0.064 for the first, -0.008 ± 0.062 for the second.

First: I57A
Second: I57K
The abundance fitness of the first is lower: -0.316 ± 0.051 for the first, -0.149 ± 0.065 for the second.

Going from I57R to Q51K, the abundance fitness rises from -0.125 ± 0.047 to 0.053 ± 0.054.

Compared with K5N, K5C is lower in abundance fitness: -0.555 ± 0.097 for the first, -0.924 ± 0.15 for the second.

Compared with K5T, K5R is higher in abundance fitness: -0.601 ± 0.077 for the first, -0.118 ± 0.052 for the second.

Compared with N36S, N36T is higher in abundance fitness: -0.202 ± 0.054 for the first, -0.011 ± 0.058 for the second.

N36G and N36C are within error of each other in abundance fitness: -0.366 ± 0.048 for the first, -0.397 ± 0.081 for the second.

Going from M42C to M42N, the abundance fitness rises from -0.742 ± 0.091 to -0.412 ± 0.12.

First: M42G
Second: M42L
The abundance fitness of the first is lower: -0.485 ± 0.062 for the first, -0.369 ± 0.047 for the second.

M42T and M42W are within error of each other in abundance fitness: -0.636 ± 0.074 for the first, -0.795 ± 0.11 for the second.

Going from D10T to D10M, the abundance fitness falls from -0.157 ± 0.053 to -0.44 ± 0.074.

D10S and D10R are within error of each other in abundance fitness: 0.05 ± 0.045 for the first, 0.051 ± 0.04 for the second.

Compared with D10F, N26F is higher in abundance fitness: -0.653 ± 0.17 for the first, -0.328 ± 0.076 for the second.

First: N26K
Second: N26D
The abundance fitness of the first is higher: -0.057 ± 0.068 for the first, -0.539 ± 0.081 for the second.

First: N26A
Second: N26P
The abundance fitness of the first is higher: 0.189 ± 0.047 for the first, -0.629 ± 0.085 for the second.

First: N26T
Second: N26I
The abundance fitness of the first is lower: -0.403 ± 0.063 for the first, -0.271 ± 0.063 for the second.

First: N26Q
Second: G28A
The abundance fitness of the first is higher: 0.009 ± 0.087 for the first, -0.453 ± 0.056 for the second.

Going from G28R to G28S, the abundance fitness rises from -0.802 ± 0.072 to -0.474 ± 0.055.

G28F and G28W are within error of each other in abundance fitness: -0.796 ± 0.16 for the first, -0.886 ± 0.11 for the second.

First: C9A
Second: C9K
The abundance fitness of the first is lower: -0.143 ± 0.05 for the first, 0.278 ± 0.052 for the second.

C9L and C9T are within error of each other in abundance fitness: 0.168 ± 0.046 for the first, 0.119 ± 0.054 for the second.

Compared with C9G, C9Y is higher in abundance fitness: -0.389 ± 0.036 for the first, 0.09 ± 0.077 for the second.

Compared with C9V, C9W is lower in abundance fitness: 0.217 ± 0.052 for the first, -0.018 ± 0.055 for the second.

Compared with C9F, A20K is lower in abundance fitness: 0.086 ± 0.11 for the first, -0.606 ± 0.083 for the second.

A20H and A20N are within error of each other in abundance fitness: -0.578 ± 0.091 for the first, -0.481 ± 0.19 for the second.

A20G and A20V are within error of each other in abundance fitness: -0.45 ± 0.055 for the first, -0.446 ± 0.056 for the second.

Compared with A20Y, A20F is higher in abundance fitness: -0.901 ± 0.19 for the first, -0.311 ± 0.071 for the second.

E43N and E43A are within error of each other in abundance fitness: -0.697 ± 0.12 for the first, -0.66 ± 0.057 for the second.

Compared with E43Q, E43H is lower in abundance fitness: -0.447 ± 0.093 for the first, -0.798 ± 0.2 for the second.

First: E43Y
Second: E43T
The abundance fitness of the first is higher: -0.725 ± 0.084 for the first, -1.07 ± 0.14 for the second.

Compared with H59L, H59C is higher in abundance fitness: -0.613 ± 0.063 for the first, 0.095 ± 0.073 for the second.

H59D and H59F are within error of each other in abundance fitness: -0.375 ± 0.081 for the first, -0.329 ± 0.063 for the second.

Compared with H59M, H59P is lower in abundance fitness: -0.259 ± 0.073 for the first, -0.524 ± 0.062 for the second.

First: E6W
Second: E6M
The abundance fitness of the first is lower: -0.793 ± 0.088 for the first, -0.25 ± 0.1 for the second.

E6A and E6G are within error of each other in abundance fitness: -0.148 ± 0.055 for the first, -0.246 ± 0.056 for the second.

Going from E6K to E6H, the abundance fitness falls from 0.056 ± 0.23 to -0.557 ± 0.1.

First: E6Y
Second: E6S
The abundance fitness of the first is lower: -0.832 ± 0.26 for the first, -0.39 ± 0.062 for the second.

Going from N22L to N22A, the abundance fitness rises from -0.479 ± 0.042 to -0.297 ± 0.12.

N22V and N22S are within error of each other in abundance fitness: -0.18 ± 0.078 for the first, -0.323 ± 0.066 for the second.

Compared with N22R, N22D is higher in abundance fitness: -0.682 ± 0.11 for the first, 0.004 ± 0.093 for the second.

Compared with K31Y, K31H is higher in abundance fitness: 0.173 ± 0.11 for the first, 0.367 ± 0.063 for the second.

First: K31Q
Second: P55I
The abundance fitness of the first is higher: 0.097 ± 0.066 for the first, -0.547 ± 0.057 for the second.

First: P55E
Second: P55A
The abundance fitness of the first is higher: -0.043 ± 0.058 for the first, -0.243 ± 0.059 for the second.

Compared with P55N, P55R is lower in abundance fitness: -0.006 ± 0.073 for the first, -0.698 ± 0.075 for the second.

P55C and P55F are within error of each other in abundance fitness: -0.344 ± 0.1 for the first, -0.396 ± 0.082 for the second.

L60K and L60G are within error of each other in abundance fitness: -0.494 ± 0.09 for the first, -0.436 ± 0.057 for the second.

L60F and L60N are within error of each other in abundance fitness: -0.598 ± 0.13 for the first, -0.425 ± 0.099 for the second.

Compared with L60E, L60R is lower in abundance fitness: -0.226 ± 0.082 for the first, -0.45 ± 0.044 for the second.

D17T and A24C are within error of each other in abundance fitness: -0.501 ± 0.49 for the first, -0.179 ± 0.079 for the second.

A24G and A24M are within error of each other in abundance fitness: -0.495 ± 0.047 for the first, -0.418 ± 0.088 for the second.

A24L and A24H are within error of each other in abundance fitness: -0.513 ± 0.073 for the first, -0.488 ± 0.092 for the second.

A24D showed an abundance fitness of -0.838 ± 0.13.
